{"source": "ChEMBL document CHEMBL1122575", "about": "“Dependence of beta-lactamase stability on substructures within beta-lactam antibiotics” (J Med Chem, 1984)", "proteins": {"B1": {"name": "Beta-lactamase (Staphylococcus aureus), P00807 (protein)", "chain": "MKKLIFLIVIALVLSACNSNSSHAKELNDLEKKYNAHIGVYALDTKSGKEVKFNSDKRFAYASTSKAINSAILLEQVPYNKLNKKVHINKDDIVAYSPILEKYVGKDITLKALIEASMTYSDNTANNKIIKEIGGIKKVKQRLKELGDKVTNPVRYEIELNYYSPKSKKDTSTPAAFGKTLNKLIANGKLSKENKKFLLDLMLNNKSGDTLIKDGVPKDYKVADKSGQAITYASRNDVAFVYPKGQSEPIVLVIFTNKDNKSDKPNDKLISETAKSVMKEF"}}, "key": {"[1]": {"substrate": "COc1cccc(OC)c1C(=O)N[C@@H]1C(=O)N2C1SC(C)(C)C2C(=O)O", "experiment": "(§1) Stability against beta-lactamase of Staphylococcus aureus"}, "[2]": {"substrate": "CC1(C)SC2[C@H](NC(=O)c3ccccc3)C(=O)N2C1C(=O)O", "experiment": "as §1"}, "[3]": {"substrate": "CC1(C)S[C@@H]2[C@H](NC(=O)Cc3ccccc3)C(=O)N2[C@H]1C(=O)O", "experiment": "as §1"}}}
{"protein": "B1", "values": [{"measurement": "Km", "setting": "[1]", "value": 5000, "unit": "µM"}, {"measurement": "Km", "setting": "[2]", "value": 33, "unit": "µM"}, {"measurement": "Km", "setting": "[3]", "value": 12, "unit": "µM"}]}
